Data as given in US8008452B2, “Phosphorylated Ndr kinase” (Novartis Forschungesstiftung, Zweigniederlassung Friedrich …, priority 2002, dated 2011).

Experiments:
[1] = system: HA-NDR1; experiment: HA-NDR1 kinase assay on 12CA5 immunoprecipitates from transfected, treated COS-1 cells; type: cell-based, human; set-up: kinase activity of HA-NDR1 variants, −OA: unit not given here; settings: COS-1 cells
Protocol: In some experiments, the cells were treated for 60 min with 1 microM okadaic acid in 0.1% N,N-dimethylformamide (DMF) (Alexis Corp.), 50 microM BAPTA-AM (1,2-bis (o-aminophenoxy) ethane-N,N,N′,N′-tetraacetic acid tetra (acetoxy-methyl)ester) in 0.1% diimethylsulfoxide (DMSO; Sigma), or 20 microM thapsigargin in 0.1% DMSO (Alomone) 24 hours after transfection.
Transfected and treated COS-1 cells were washed once with ice-cold PBS, and harvested by rubber policeman in 1 ml ice-cold PBS containing 1 mM Na3VO4 and 20 mM beta-glycerophosphate before lysis in 500 microliters of IP buffer (20 mM Tris-HCl pH 8.0, 150 mM NaCl, 1% Nonidet P-40, 10% glycerol, 1 mM Na3VO4, 20 mM beta-glycerolphosphate, 1 microM microcystin-LR, 50 mM NaF, 0.5 mM PMSF, 4 microM leupeptin, 1 mM benzamidine, and 1 tablet/10 ml IP of Complete protease inhibitors (Roche)). Lysates were centrifuged at 20 000 g for 20 min and triplicate aliquots (200 microg) of supernatant were precleared with protein A-Sepharose (Amersham Pharmacia Biotech) for 60 min and mixed subsequently for 3 h at 4° C. with 12CA5 antibody prebound to protein A-Sepharose (˜1 microg antibody bound to 2 microl beads). The beads were then washed twice with IP buffer, once for 10 min with IP buffer containing 1 M NaCl, once again for 10 min with IP buffer, and finally twice with 20 mM Tris-HCl pH 7.5 containing 4 microM leupeptin and 1 mM benzamidine. Thereafter, beads were resuspended in 30 microliters buffer containing 20 mM Tris-HCl pH 7.5, 10 mM MgCl2, 1 mM DTT, 100 microM [gamma-^32P]ATP (˜0.1 microCi/microliter), 1 microM cAMP-dependent protein kinase inhibitor peptide PKI (Bachem), 4 microM leupeptin, 1 mM benzamidine, 1 microM microcystin-LR, and 1 mM NDR1 substrate peptide ([…]). After 60 min incubation at 30° C., 15 microliters of supernatant were removed, and phosphate incorporation into the substrate peptide determined as described for GST-NDR1 above.
COS-1 cells expressing either wild type HA-NDR1 or the indicated mutants were treated for 1 h with 1 microM okadaic acid or with solvent alone. HA-tagged NDR kinase variants were then immunoprecipitated (out of 100 microgram of detergent extracts) with 12CA5 monoclonal antibody and assayed for kinase activity by a peptide kinase assay as described above.
Mock-transfected or HA-NDR1-expressing COS-1 cells were treated for 1 h with […], 50 microM BAPTA-AM, and […] or with solvent (0.1% DMF or 0.1% DMSO) alone. 12CA5 immunoprecipitates (out of 100 microgram protein extract) were then assayed using the peptide kinase assay for NDR1 kinase activity.
To test whether hMOB1 plays a role in NDR activation, myc-hMOB1 or the empty vector was cotransfected with HA-NDR1 in COS1 cells and treated with OA. 12CA5 immunoprecipitates were then assayed using the peptide kinase assay for HA-NDR kinase activity. […] GST-MOB and GST respectively was added to immunoprecipitated HA-NDR and kinase reaction were performed. The reactions were resolved on a 10% SDS PAGE and the radioactivity visualised by using a phosphoimager.

[2] = biological target: T1, GST-NDR1 (Homo sapiens, UniProt Q15208); experiment: GST-NDR1 in vitro autophosphorylation, incorporated 32P by Cerenkov counting; type: biochemical; settings: in vitro
T1 construct: made in house; host or cells: E. coli BL21-DE3-pRep4
T1 sequence (Q15208 2-465): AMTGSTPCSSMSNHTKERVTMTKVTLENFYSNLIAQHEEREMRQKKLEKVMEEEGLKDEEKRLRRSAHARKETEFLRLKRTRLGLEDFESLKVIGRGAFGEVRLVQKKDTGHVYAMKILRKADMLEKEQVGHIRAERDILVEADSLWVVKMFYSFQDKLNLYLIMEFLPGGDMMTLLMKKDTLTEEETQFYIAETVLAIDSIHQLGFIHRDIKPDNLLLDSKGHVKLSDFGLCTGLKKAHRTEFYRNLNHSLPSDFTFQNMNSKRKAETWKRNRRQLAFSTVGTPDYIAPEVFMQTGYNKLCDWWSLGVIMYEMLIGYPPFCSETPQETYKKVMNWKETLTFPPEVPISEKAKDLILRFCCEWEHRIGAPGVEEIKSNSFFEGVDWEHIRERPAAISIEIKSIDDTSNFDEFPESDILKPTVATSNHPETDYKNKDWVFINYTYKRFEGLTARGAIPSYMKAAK
Protocol: (§1) BL21-DE3-pRep4 E. coli strain was transformed with the pGEX-2T_NDR1 wild type or mutant plasmids. BL21-DE3 is a protease-deficient E. coli strain and pRep4 is a Laclq repressor-bearing plasmid both available commercially. Optionally, if desired, an E. coli strain comprising GroESL can be used, which expresses a chaperone protein that stabilizes the kinase. Mid-logarithmic phase cells were induced with 0.5 mM isopropyl beta-D-thiogalactopyranoside (IPTG) for 4 hours at 30° C. Bacteria were lysed using a French press in the presence of 1 mg/ml lysosyme, and the fusion proteins were purified on glutathione-agarose (Amersham Pharmacia Biotech) as described by the manufacturers. Recombinant proteins were assayed for kinase activity as described below and autophosphorylation was determined after SDS-PAGE separation either by Cerenkov counting or by exposure to a PhosphorImager screen followed by analysis with ImageQuant software (Molecular Dynamics).
(§2) In brief, 1 microgram of purified GST-NDR1 (in solution ˜0.5 microM) wild type, kinase dead (K118A), and alanine mutants of phosphorylation residues Thr74, Ser281, and Thr444 were autophosphorylated for 2 hours in vitro without further additions or in the presence of 1 mM CaCl2 and 10 microM bovine S100B. Proteins were visualized on SDS gels using Coomassie Blue R-350 stained SDS-PAGE gel, and [gamma-^32P]ATP-labelled proteins were visualized by autoradiography of the gels developed on a Phosphorimager screen. The amount of incorporated ^32P was quantified by Cerenkov counting.

[3] = system: GST-NDR1; experiment: as above; type: biochemical, human; settings: GST-NDR1 variant
Protocol: as §1, §2

[4] = system: GST-NDR1; experiment: GST-NDR1 kinase assay (peptide kinase assay); type: biochemical, human; set-up: Specific activity of GST-NDR1 variants, CTRL / Specific activity of GST-NDR1 variants, −S100B / Specific activity of GST-NDR1 variants, +S100B: unit not given here
Protocol: 1 microgram of purified recombinant GST-NDR1 wild type and mutants (without further treatment or autophosphorylated for 2 h in the presence or absence of 1 mM CaCl2 and […] (Sigma)) were assayed in 20 microliter of reaction mixture containing 20 mM Tris-HCl pH 7.5, 10 mM MgCl2, 1 mM DTT, 100 microM [gamma-^32P]ATP (˜0.5 microCi/microliter), and 1 mM NDR1 substrate peptide ([…]; SEQ ID NO:22). After 30 mins incubation at 30° C., reactions were stopped with 50 mM EDTA, and 10 microliters of reaction mixture were spotted onto 2 cm^2 squares of P81 phosphocellulose paper (Whatman). These were subsequently washed for 4×5 min and 3×20 min in 1% phosphoric acid and once in acetone before counting in a liquid scintillation counter. One unit of NDR1 activity was defined as the amount which catalyses the phosphorylation of 1 nmol peptide substrate in 1 min.
Specific activity of GST-NDR1 mutants was also measured by a peptide kinase assay as described above. For this purpose, 1 microgram of purified GST-NDR1 wild type and alanine mutants were left without further treatment or autophosphorylated for 2 h in the presence or absence of 1 mM CaCl2 and […].

WT: human NDR1 wild type; GST fusion in the 2nd table, the 3rd table, HA-tagged in the 4th table
kinase activity of HA-NDR1 variants, +OA ([1]; 1 microM okadaic acid 1 h): 10.8852
kinase activity of HA-NDR1 variants, −OA ([1]; solvent alone 1 h): 0.3532
autophosphorylation of wild-type GST-NDR1 in vitro [2]: up to 0.4 pmol ATP/pmol GST-NDR1
amount of incorporated 32P (autophosphorylation), −S100B ([3]; 1 microgram, autophosphorylated 2 hours without further additions, pmol ATP/pmol GST-NDR1): 0.1688
amount of incorporated 32P (autophosphorylation), +S100B ([3]; 2 hours in the presence of 1 mM CaCl2 and 10 microM bovine S100B, in pmol ATP/pmol GST-NDR1): 0.3512
Specific activity of GST-NDR1 variants, −S100B ([4]; autophosphorylated 2 h in the absence of CaCl2 and S100B): 4.106
Specific activity of GST-NDR1 variants, +S100B ([4]; autophosphorylated 2 h in the presence of 1 mM CaCl2 and 10 mM bovine S100B): 21.348
Specific activity of GST-NDR1 variants, CTRL ([4]; left without further treatment): 1
